The target in one series is T1, purified S1P(187-983) (Cricetulus griseus, UniProt Q9Z2A8).
T1 construct: 1.5-5 μg of purified S1P(187-983); made in house; host or cells: SRD-12B cells (CHO-derived) stably transfected with pCMV-S1P(983)-Myc-His (TR-3117, 'S1P(983) cells'); The protein was secreted into serum-free medium and purified on Ni-NTA agarose
T1 sequence (Q9Z2A8 187-983): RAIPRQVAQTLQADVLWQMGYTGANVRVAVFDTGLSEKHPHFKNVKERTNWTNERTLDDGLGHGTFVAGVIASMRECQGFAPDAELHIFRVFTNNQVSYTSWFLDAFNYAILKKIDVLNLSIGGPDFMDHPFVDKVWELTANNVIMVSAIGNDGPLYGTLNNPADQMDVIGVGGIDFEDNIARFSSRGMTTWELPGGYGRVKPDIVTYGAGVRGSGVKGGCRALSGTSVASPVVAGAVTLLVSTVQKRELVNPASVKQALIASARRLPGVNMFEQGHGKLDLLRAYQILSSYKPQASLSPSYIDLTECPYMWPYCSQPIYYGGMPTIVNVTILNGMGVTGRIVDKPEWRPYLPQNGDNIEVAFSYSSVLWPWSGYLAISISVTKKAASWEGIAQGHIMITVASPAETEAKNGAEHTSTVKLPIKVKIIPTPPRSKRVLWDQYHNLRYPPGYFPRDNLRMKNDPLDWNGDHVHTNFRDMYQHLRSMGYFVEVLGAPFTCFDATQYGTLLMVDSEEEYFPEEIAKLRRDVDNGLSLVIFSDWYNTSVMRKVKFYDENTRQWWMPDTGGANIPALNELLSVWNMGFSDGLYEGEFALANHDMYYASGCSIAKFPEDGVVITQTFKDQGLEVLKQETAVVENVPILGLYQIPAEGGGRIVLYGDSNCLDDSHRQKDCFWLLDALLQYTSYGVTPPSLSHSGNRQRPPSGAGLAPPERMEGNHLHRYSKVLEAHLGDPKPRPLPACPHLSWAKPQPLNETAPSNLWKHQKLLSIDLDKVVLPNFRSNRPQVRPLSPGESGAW
The format is biochemical, hamster. To be noted: for inhibition of S1P at extremely high concentrations: extremely high concentrations of inhibitor; for Relative Activity (comparative cleavage of fluorogenic synthetic peptidyl substrates): cleavage by purified S1P-C(187-983), MCA-peptide 100 μM, pH 8.0, 37° C. As to the method: Stock cultures of S1P(983) cells were grown in 850-cm^2 roller bottles in medium B supplemented with 5% (v/v) newborn calf lipoprotein-deficient serum and 500 μg/mL G418. On day 0, 10 roller bottles of S1P(983) cells were seeded at a density of ˜4×10^7 cells/roller bottles. On day 2, the medium was replaced with 100 mL of serum-free medium CHO-S-SFMII. The medium from each roller bottle was collected daily from day 3 to day 7. The collected medium was pooled, filtered through 0.45-μm cellulose acetate low-protein binding membrane filter units (Corning Costar) and stored at 4° C. for 0 to 4 days. On day 7, the filtered medium was adjusted to pH 8.0 by addition of tris-HCl at a final concentration of 25 mM, and then loaded onto four parallel 5-mL Ni-NTA agarose columns (Qiagen, Inc., Chatsworth, Calif.) equilibrated with 20 mL of buffer B (25 mM tris-HCl at pH 8.0, 10% (v/v) glycerol, 1 mM CaCl2). The chromatography was performed at 4° C. via gravity at ˜100 mL/hr. The column was washed with 40 mL of buffer B supplemented with 1M NaCl followed by 20 mL of buffer B without NaCl. […] The eluate was concentrated with a Centriprep 30 filter followed by a Centricon 30 filter (Amicon, Inc.).
S1P activity was measured fluorometrically with MCA-conjugated peptidyl substrates. Each reaction was carried out in 0.2 mL of assay buffer (25 mM tris, 25 mM Mes, 25 mM acetic acid, and 1 mM CaCl2 adjusted to pH 8.0 with concentrated NaOH). Reactions contained MCA-peptide (final concentration 100 μM, added in 2 μl DMSO) and 1.5-5 μg of purified S1P(187-983). After incubation for 0.5-5 h at 37° C., each reaction was terminated by addition of 1 mL of ice-cold 5 mM sodium EDTA. The liberated 7-amino-4-methylcoumarin (AMC) was measured with a Perkin-Elmer LS-30 luminescence spectrometer (360 nm excitation, 460 nm emission). A standard curve of fluorescence intensity was generated with different concentrations of AMC (Promega).

The test system of another series is T2, Ac-Arg-Ser-Val-Leu-MCA.
T2 sequence: XSVX

The test system of series [1] is T3, Ac-Val-Phe-Arg-Ser-Leu-Lys-MCA.
T3 sequence: XFRSLX

A further series has as its system T4, Ac-Arg-Ser-Leu-Lys-MCA.
T4 sequence: XSLX

For series [2], the system named is T5, Ac-Ser-Gly-Arg-Ser-Val-Leu-MCA.
T5 sequence: XGRSVX

The subject of another series is T6, Boc-Arg-Val-Arg-Arg-MCA.
T6 sequence: XVRX

Series [3] has as its system T7, Ac-Ser-Gly-Ser-Gly-Arg-Ser-Val-Leu-MCA.
T7 sequence: XGSGRSVX

In series [4] the test system is T8, Ac-Val-Phe-Arg-Ser-Arg-Arg-MCA.
T8 sequence: XFRSRX

Series [5] deals with T9, Ac-Val-Phe-Ala-Ser-Leu-Lys-MCA.
T9 sequence: XFASLX

The mark [6] stands for this setting: incubated with substrate Ac-VFRSLK-MCA.

We go through 20 compounds from patent publication US6649593B1, “Modulators of SREBP processing” (priority 1999, dated 2003).

Where two headings read alike, the source gives them in different places. Non-standard residues stand in square brackets, D forms with d. Residues, ends and D or L forms follow the SMILES beside them. *: point of attachment. Sta = CC(C)C[C@H](N)[C@@H](O)CC(=O)O; Isovaleryl = CC(C)CC(=O)*

For the compound `O[C@H](CS)[C@H](O)CS` (racemic) [dithiothreitol], the “inhibition of S1P at extremely high concentrations” value against purified S1P(187-983) (setting [6]) was “also inhibited S1P”. As to `c1cnc2c(c1)ccc1cccnc12` [1,10-phenanthroline], the “inhibition of S1P at extremely high concentrations” value against purified S1P(187-983) (setting [6]) is given as “also inhibited S1P”. Consider `N=C(N)c1ccc(CS(=O)(=O)F)cc1` [APMSF, (4-amindinophenyl)-methanesulfonyl fluoride], for which, at purified S1P(187-983) (setting [6]), the “inhibition of S1P” value is given as “not significantly inhibited”.

Turning to `O=C(O)CN(CCN(CC(=O)O)CC(=O)O)CC(=O)O` [EDTA], the “inhibition of S1P” value at purified S1P(187-983) is “partially inhibited”. Take `O=C(O)CN(CCOCCOCCN(CC(=O)O)CC(=O)O)CC(=O)O` [EGTA]: the “inhibition of S1P at extremely high concentrations” value on purified S1P(187-983) (setting [6]) was “also inhibited S1P”. In the case of `O=S(=O)(F)Cc1ccccc1` [PMSF, phenylmethylsulfonyl fluoride], the “inhibition of S1P” value on purified S1P(187-983) (setting [6]) is on record as “not significantly inhibited”.

Consider `Cl.NCCc1ccc(S(=O)(=O)F)cc1` [Pefabloc®], for which the “inhibition of S1P at high concentrations” value on purified S1P(187-983) (incubated with substrate Ac-VFRSLK-MCA, high concentrations of inhibitor) is “did inhibit S1P”. Take `CC(=O)N[C@@H](CC(C)C)C(=O)N[C@@H](CC(C)C)C(=O)N[C@H](C=O)CCCNC(=N)N` [leupeptin]: the “inhibition of S1P” value on purified S1P(187-983) (setting [6]) was “resistant”. In the case of `CC(C)CC(=O)N[C@H](C(=O)N[C@H](C(=O)N[C@@H](CC(C)C)[C@@H](O)CC(=O)N[C@@H](C)C(=O)N[C@@H](CC(C)C)[C@@H](O)CC(=O)O)C(C)C)C(C)C` [pepstatin] (Isovaleryl-VV[Sta]A[Sta]-OH), the “inhibition of S1P” value against purified S1P(187-983) (setting [6]) is given as “resistant”.

Consider “Ac-Arg-Ser-Leu-Lys-MCA [Ac-RSLK-MCA, fluorogenic MCA-conjugated peptidyl substrate]”, for which the “Relative Activity (comparative cleavage of fluorogenic synthetic peptidyl substrates)” value with purified S1P(187-983) is 0.47. In the case of “Ac-Arg-Ser-Val-Leu-MCA [Ac-RSVL-MCA, fluorogenic MCA-conjugated peptidyl substrate]”, the “Relative Activity (comparative cleavage of fluorogenic synthetic peptidyl substrates)” value with purified S1P(187-983) is reported as below 0.1. “Ac-Ser-Gly-Arg-Ser-Val-Leu-MCA [Ac-SGRSVL-MCA, fluorogenic MCA-conjugated peptidyl substrate]”: the “Relative Activity (comparative cleavage of fluorogenic synthetic peptidyl substrates)” value in the series with purified S1P(187-983) is given as below 0.1. Same read-out and setting: under “Ac-Ser-Gly-Ser-Gly-Arg-Ser-Val-Leu-MCA [Ac-SGSGRSVL-MCA, fluorogenic MCA-conjugated peptidyl substrate]” stands below 0.1; under “Ac-Val-Phe-Ala-Ser-Leu-Lys-MCA [Ac-VFASLK-MCA, fluorogenic MCA-conjugated peptidyl substrate]”, below 0.1; under “Ac-Val-Phe-Arg-Ser-Arg-Arg-MCA [Ac-VFRSRR-MCA, fluorogenic MCA-conjugated peptidyl substrate]”, below 0.1.

As for “Ac-Val-Phe-Arg-Ser-Leu-Lys-MCA [Ac-VFRSLK-MCA, fluorogenic MCA-conjugated peptidyl substrate]”, the “Relative Activity (comparative cleavage of fluorogenic synthetic peptidyl substrates)” value with purified S1P(187-983) is given as 1.0.

In the case of “Boc-Arg-Val-Arg-Arg-MCA [Boc-RVRR-MCA, fluorogenic MCA-conjugated peptidyl substrate]”, in the series with purified S1P(187-983), the “Relative Activity (comparative cleavage of fluorogenic synthetic peptidyl substrates)” value is reported as below 0.1.

Consider “N-acetyl-leucinal-leucinal-norleucinal [ALLN]”, for which the “inhibition of S1P” value against purified S1P(187-983) (setting [6]) is given as “resistant”.

aprotinin: the “inhibition of S1P” value on purified S1P(187-983) (setting [6]) was “resistant”.

In the case of “purified S1P(187-983), secreted form from S1P(983)-Myc-His cells (hamster Site-1 protease)”, the Relative Activity (cleavage of fluorogenic MCA substrate, release of AMC) (relative activity) in the series on Ac-Arg-Ser-Val-Leu-MCA is below 0.1; in series [1], 1; in the series on Ac-Arg-Ser-Leu-Lys-MCA, 0.47; in series [2], below 0.1; with Boc-Arg-Val-Arg-Arg-MCA it was below 0.1; in series [3] it was below 0.1. For the same compound, the Relative Activity (cleavage of fluorogenic MCA substrate, release of AMC) (relative activity) in [4] and in [5] was below 0.1 each time.
